Results: article PMC8049198

Target: human prion protein (hPrP), amino acid residues 23-230 (human) (UniProt P04156)
Assay: high-speed atomic force microscopy (HS-AFM)

## human prion protein (hPrP), amino acid residues 23-230, P04156 23-230 (domain or fragment; other documents disagree on this pair)
  stoichiometry N: 6
